Numbered stars: 1 amine (or outer) side, 2 acyl side, 3 side chain; on linkers, the order of the positions; unused ones are H or OH. Square brackets hold non-standard residues; d marks the D form. Side chains are listed from the residue outwards. Ends that are not written are not given here. * marks the point of attachment. C20 diacid = O=C(O)CCCCCCCCCCCCCCCCCCC(=O)*; γGlu = O=C(O)[C@H](CCC(=O)[*:2])N[*:1]; AEEA = NCCOCCOCC(=O)O; Aib = CC(C)(N)C(=O)O
T1: human GIP receptor (human, UniProt P48546 22-466)
T1 construct: whole, on cells; Used as crude membranes of stably transfected CHO cells; also called hGIPR
T1 sequence (looked up): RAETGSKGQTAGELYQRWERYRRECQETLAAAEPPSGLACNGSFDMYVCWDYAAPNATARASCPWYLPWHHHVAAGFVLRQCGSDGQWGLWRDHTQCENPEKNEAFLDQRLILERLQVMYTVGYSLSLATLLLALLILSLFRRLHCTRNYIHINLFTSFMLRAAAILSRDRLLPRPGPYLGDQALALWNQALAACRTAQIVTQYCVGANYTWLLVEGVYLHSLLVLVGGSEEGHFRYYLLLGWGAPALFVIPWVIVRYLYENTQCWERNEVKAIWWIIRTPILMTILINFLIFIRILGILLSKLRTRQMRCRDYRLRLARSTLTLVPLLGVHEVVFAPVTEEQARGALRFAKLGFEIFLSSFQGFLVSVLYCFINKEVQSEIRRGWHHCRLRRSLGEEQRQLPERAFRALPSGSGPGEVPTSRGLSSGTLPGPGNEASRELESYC


Legend:
[1] = biological target: T1, human GIP receptor; assay: SPA, [125I]-GIP displacement, hGIPR membranes
[2] = biological target: T2, human glucagon receptor (human, UniProt P47871 26-477); assay: SPA, [125I]-Gcg displacement, hGcgR membranes
T2 construct: whole, on cells; Used as crude membranes of stably transfected HEK293 cells; also called hGcgR; hGLcgR
T2 sequence (P47871 26-477): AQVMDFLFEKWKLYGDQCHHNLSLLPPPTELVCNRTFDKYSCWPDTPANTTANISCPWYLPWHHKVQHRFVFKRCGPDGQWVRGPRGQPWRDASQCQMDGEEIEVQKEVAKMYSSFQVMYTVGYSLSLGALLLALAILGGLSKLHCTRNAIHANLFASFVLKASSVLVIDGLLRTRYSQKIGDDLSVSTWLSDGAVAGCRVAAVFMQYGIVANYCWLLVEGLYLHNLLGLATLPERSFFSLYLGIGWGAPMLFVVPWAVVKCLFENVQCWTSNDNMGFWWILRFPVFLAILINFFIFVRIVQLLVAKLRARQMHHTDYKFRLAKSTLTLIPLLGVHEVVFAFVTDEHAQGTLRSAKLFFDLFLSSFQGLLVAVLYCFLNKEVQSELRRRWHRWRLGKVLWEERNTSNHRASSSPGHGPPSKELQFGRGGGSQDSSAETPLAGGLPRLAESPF

[3] = biological target: T3, human GLP-1 receptor (human, UniProt P43220 24-463); assay: SPA, [125I]-GLP-1 displacement, hGLP-1R membranes
T3 construct: whole, on cells; Used as crude membranes of stably transfected HEK293 cells; also called hGLP1R; hGLP-1R

Binder	Ki [1] [nM]	Ki [2] [nM]	Ki [3] [nM]
Y[Aib]EGTFTSDYSILLDKIAQ[Aib]AFIEYLIEGGPSSGAPPPSK([AEEA-AEEA-γGlu-C20 diacid])-NH2 (N-terminus assumed; SMILES CC[C@H](C)[C@H](NC(=O)[C@H](CCCCN)NC(=O)[C@H](CC(=O)O)NC(=O)[C@H](CC(C)C)NC(=O)[C@H](CC(C)C)NC(=O)[C@@H](NC(=O)[C@H](CO)NC(=O)[C@H](Cc1ccc(O)cc1)NC(=O)[C@H](CC(=O)O)NC(=O)[C@H](CO)NC(=O)[C@@H](NC(=O)[C@H](Cc1ccccc1)NC(=O)[C@@H](NC(=O)CNC(=O)[C@H](CCC(=O)O)NC(=O)C(C)(C)NC(=O)[C@@H](N)Cc1ccc(O)cc1)[C@@H](C)O)[C@@H](C)O)[C@@H](C)CC)C(=O)N[C@@H](C)C(=O)N[C@@H](CCC(N)=O)C(=O)NC(C)(C)C(=O)N[C@@H](C)C(=O)N[C@@H](Cc1ccccc1)C(=O)N[C@H](C(=O)N[C@@H](CCC(=O)O)C(=O)N[C@@H](Cc1ccc(O)cc1)C(=O)N[C@@H](CC(C)C)C(=O)N[C@H](C(=O)N[C@@H](CCC(=O)O)C(=O)NCC(=O)NCC(=O)N1CCC[C@H]1C(=O)N[C@@H](CO)C(=O)N[C@@H](CO)C(=O)NCC(=O)N[C@@H](C)C(=O)N1CCC[C@H]1C(=O)N1CCC[C@H]1C(=O)N1CCC[C@H]1C(=O)N[C@@H](CO)C(=O)N[C@@H](CCCCNC(=O)COCCOCCNC(=O)COCCOCCNC(=O)CC[C@H](NC(=O)CCCCCCCCCCCCCCCCCCC(=O)O)C(=O)O)C(N)=O)[C@@H](C)CC)[C@@H](C)CC) [Example 49]	0.087	236	12.3
Y[Aib]EGTFTSDYSSLLDKK([AEEA-AEEA-γGlu-C20 diacid])AQ[Aib]AFIEYLIEGGPSSGAPPPS-NH2 (N-terminus assumed; SMILES CC[C@H](C)[C@H](NC(=O)[C@H](CC(C)C)NC(=O)[C@H](Cc1ccc(O)cc1)NC(=O)[C@H](CCC(=O)O)NC(=O)[C@@H](NC(=O)[C@H](Cc1ccccc1)NC(=O)[C@H](C)NC(=O)C(C)(C)NC(=O)[C@H](CCC(N)=O)NC(=O)[C@H](C)NC(=O)[C@H](CCCCNC(=O)COCCOCCNC(=O)COCCOCCNC(=O)CC[C@H](NC(=O)CCCCCCCCCCCCCCCCCCC(=O)O)C(=O)O)NC(=O)[C@H](CCCCN)NC(=O)[C@H](CC(=O)O)NC(=O)[C@H](CC(C)C)NC(=O)[C@H](CC(C)C)NC(=O)[C@H](CO)NC(=O)[C@H](CO)NC(=O)[C@H](Cc1ccc(O)cc1)NC(=O)[C@H](CC(=O)O)NC(=O)[C@H](CO)NC(=O)[C@@H](NC(=O)[C@H](Cc1ccccc1)NC(=O)[C@@H](NC(=O)CNC(=O)[C@H](CCC(=O)O)NC(=O)C(C)(C)NC(=O)[C@@H](N)Cc1ccc(O)cc1)[C@@H](C)O)[C@@H](C)O)[C@@H](C)CC)C(=O)N[C@@H](CCC(=O)O)C(=O)NCC(=O)NCC(=O)N1CCC[C@H]1C(=O)N[C@@H](CO)C(=O)N[C@@H](CO)C(=O)NCC(=O)N[C@@H](C)C(=O)N1CCC[C@H]1C(=O)N1CCC[C@H]1C(=O)N1CCC[C@H]1C(=O)N[C@@H](CO)C(N)=O) [Example 58]	0.105	339	2.77
Y[Aib]NGTFTSDYSILLDKK([AEEA-AEEA-γGlu-C20 diacid])AQ[Aib]AFIEYLIEGGPSSGAPPPS-NH2 (N-terminus assumed; SMILES CC[C@H](C)[C@H](NC(=O)[C@H](CC(C)C)NC(=O)[C@H](Cc1ccc(O)cc1)NC(=O)[C@H](CCC(=O)O)NC(=O)[C@@H](NC(=O)[C@H](Cc1ccccc1)NC(=O)[C@H](C)NC(=O)C(C)(C)NC(=O)[C@H](CCC(N)=O)NC(=O)[C@H](C)NC(=O)[C@H](CCCCNC(=O)COCCOCCNC(=O)COCCOCCNC(=O)CC[C@H](NC(=O)CCCCCCCCCCCCCCCCCCC(=O)O)C(=O)O)NC(=O)[C@H](CCCCN)NC(=O)[C@H](CC(=O)O)NC(=O)[C@H](CC(C)C)NC(=O)[C@H](CC(C)C)NC(=O)[C@@H](NC(=O)[C@H](CO)NC(=O)[C@H](Cc1ccc(O)cc1)NC(=O)[C@H](CC(=O)O)NC(=O)[C@H](CO)NC(=O)[C@@H](NC(=O)[C@H](Cc1ccccc1)NC(=O)[C@@H](NC(=O)CNC(=O)[C@H](CC(N)=O)NC(=O)C(C)(C)NC(=O)[C@@H](N)Cc1ccc(O)cc1)[C@@H](C)O)[C@@H](C)O)[C@@H](C)CC)[C@@H](C)CC)C(=O)N[C@@H](CCC(=O)O)C(=O)NCC(=O)NCC(=O)N1CCC[C@H]1C(=O)N[C@@H](CO)C(=O)N[C@@H](CO)C(=O)NCC(=O)N[C@@H](C)C(=O)N1CCC[C@H]1C(=O)N1CCC[C@H]1C(=O)N1CCC[C@H]1C(=O)N[C@@H](CO)C(N)=O) [Example 90]	0.0472	245	4.76
YXEGTFTSDYSILLDKKAQXAFIEYLIEGGPSSGAPPPS (Aib2; K17(AOC-(2-[2-(2-Amino-ethoxy)-ethoxy]-acetyl)-(γ-Glu)-CO-(CH2)18-CO2H); Aib20; C-terminal NH2) [Example 109]	0.0279	43.1	1.34
H[Aib]NGTFTSDYSILLDKK([AEEA-AEEA-γGlu-C20 diacid])AQ[Aib]AFIEYLIEGGPSSGAPPPS-NH2 (N-terminus assumed; SMILES CC[C@H](C)[C@H](NC(=O)[C@H](CC(C)C)NC(=O)[C@H](Cc1ccc(O)cc1)NC(=O)[C@H](CCC(=O)O)NC(=O)[C@@H](NC(=O)[C@H](Cc1ccccc1)NC(=O)[C@H](C)NC(=O)C(C)(C)NC(=O)[C@H](CCC(N)=O)NC(=O)[C@H](C)NC(=O)[C@H](CCCCNC(=O)COCCOCCNC(=O)COCCOCCNC(=O)CC[C@H](NC(=O)CCCCCCCCCCCCCCCCCCC(=O)O)C(=O)O)NC(=O)[C@H](CCCCN)NC(=O)[C@H](CC(=O)O)NC(=O)[C@H](CC(C)C)NC(=O)[C@H](CC(C)C)NC(=O)[C@@H](NC(=O)[C@H](CO)NC(=O)[C@H](Cc1ccc(O)cc1)NC(=O)[C@H](CC(=O)O)NC(=O)[C@H](CO)NC(=O)[C@@H](NC(=O)[C@H](Cc1ccccc1)NC(=O)[C@@H](NC(=O)CNC(=O)[C@H](CC(N)=O)NC(=O)C(C)(C)NC(=O)[C@@H](N)Cc1c[nH]cn1)[C@@H](C)O)[C@@H](C)O)[C@@H](C)CC)[C@@H](C)CC)C(=O)N[C@@H](CCC(=O)O)C(=O)NCC(=O)NCC(=O)N1CCC[C@H]1C(=O)N[C@@H](CO)C(=O)N[C@@H](CO)C(=O)NCC(=O)N[C@@H](C)C(=O)N1CCC[C@H]1C(=O)N1CCC[C@H]1C(=O)N1CCC[C@H]1C(=O)N[C@@H](CO)C(N)=O) [Example 135]	0.161	454	3.01
YXEGTFTSDYSILLDKKAQXAFIEYLIEGGPSSGAPPPS (Aib2; K17((2-[2-(2-Amino-ethoxy)-ethoxy]-acetyl)-AOC-(γ-Glu)-CO-(CH2)18-CO2H); Aib20; C-terminal NH2) [Example 108]	0.0732	171	3
